Columns and labels:
[1] = target: Recombinant, his tagged full length human frataxin protein (Abcam ab95502) (human) (UniProt Q16595); test: Simoa sandwich 3-step; capture Ab-1; frataxin 1000 pg/mL
[2] = target: Recombinant, his tagged full length human frataxin protein (Abcam ab95502) (human) (UniProt Q16595); test: Simoa sandwich 2-step (120 min-5 min); capture Ab-1; Diluent 1 + 5% NCS; frataxin 1000 pg/mL
[3] = target: Recombinant, his tagged full length human frataxin protein (Abcam ab95502) (human) (UniProt Q16595); test: Simoa sandwich 3-step; capture Ab-1; frataxin 100 pg/mL
[4] = target: Recombinant, his tagged full length human frataxin protein (Abcam ab95502) (human) (UniProt Q16595); test: Simoa sandwich 2-step (120 min-5 min); capture Ab-1; Diluent 1 + 10% NCS; frataxin 2.47 pg/mL
[5] = target: Recombinant, his tagged full length human frataxin protein (Abcam ab95502) (human) (UniProt Q16595); test: Simoa sandwich 2-step; capture Ab-2; frataxin 6.17 pg/mL
[6] = target: Recombinant, his tagged full length human frataxin protein (Abcam ab95502) (human) (UniProt Q16595); test: Simoa sandwich 2-step; capture Ab-1
[7] = target: Recombinant, his tagged full length human frataxin protein (Abcam ab95502) (human) (UniProt Q16595); test: Simoa sandwich 2-step; capture Ab-1; 50 pM SβG
[8] = target: Recombinant, his tagged full length human frataxin protein (Abcam ab95502) (human) (UniProt Q16595); test: Simoa sandwich 2-step; capture Ab-4; frataxin 100 pg/mL
[9] = target: Recombinant, his tagged full length human frataxin protein (Abcam ab95502) (human) (UniProt Q16595); test: Simoa sandwich; capture Ab-1; no helper beads; frataxin 0.686 pg/mL
[10] = target: Recombinant, his tagged full length human frataxin protein (Abcam ab95502) (human) (UniProt Q16595); test: Simoa sandwich 2-step (120 min-5 min); capture Ab-1; Diluent 1 + 5% NCS
[11] = target: Recombinant, his tagged full length human frataxin protein (Abcam ab95502) (human) (UniProt Q16595); test: Simoa sandwich 2-step (35 min-5 min); capture Ab-1; with helper beads; frataxin 0.686 pg/mL
[12] = target: Recombinant, his tagged full length human frataxin protein (Abcam ab95502) (human) (UniProt Q16595); test: Simoa sandwich 3-step; capture Ab-2; frataxin 100 pg/mL
[13] = target: Recombinant, his tagged full length human frataxin protein (Abcam ab95502) (human) (UniProt Q16595); test: Simoa sandwich 2-step; capture Ab-1; frataxin 100 pg/mL
[14] = target: Recombinant, his tagged full length human frataxin protein (Abcam ab95502) (human) (UniProt Q16595); test: Simoa sandwich 2-step; capture Ab-2; frataxin 1000 pg/mL
[15] = target: Recombinant, his tagged full length human frataxin protein (Abcam ab95502) (human) (UniProt Q16595); test: Simoa sandwich; capture Ab-1; no helper beads; frataxin 6.17 pg/mL
[16] = target: Recombinant, his tagged full length human frataxin protein (Abcam ab95502) (human) (UniProt Q16595); test: Simoa sandwich 2-step (120 min-5 min); capture Ab-1; Diluent 1 + 10% NCS; frataxin 22.2 pg/mL
[17] = target: Recombinant, his tagged full length human frataxin protein (Abcam ab95502) (human) (UniProt Q16595); test: Simoa sandwich 2-step (120 min-5 min); capture Ab-1; Diluent 1 + 10% NCS; frataxin 12.3 pg/mL
[18] = target: Recombinant, his tagged full length human frataxin protein (Abcam ab95502) (human) (UniProt Q16595); test: Simoa sandwich 3-step; capture Ab-2; frataxin 100 pg/mL; remark: listed apart in the source
[19] = target: Recombinant, his tagged full length human frataxin protein (Abcam ab95502) (human) (UniProt Q16595); test: Simoa sandwich 2-step (120 min-5 min); capture Ab-1; Diluent 1 + 10% NCS; frataxin 0.823 pg/mL
[20] = target: Recombinant, his tagged full length human frataxin protein (Abcam ab95502) (human) (UniProt Q16595); test: Simoa sandwich 2-step (120 min-5 min); capture Ab-1; frataxin 74.1 pg/mL
[21] = target: Recombinant, his tagged full length human frataxin protein (Abcam ab95502) (human) (UniProt Q16595); test: Simoa sandwich 3-step; capture Ab-1
[22] = target: Recombinant, his tagged full length human frataxin protein (Abcam ab95502) (human) (UniProt Q16595); test: Simoa sandwich 2-step (120 min-5 min); capture Ab-1; Diluent 1 + 5% NCS; frataxin 200 pg/mL
[23] = target: Recombinant, his tagged full length human frataxin protein (Abcam ab95502) (human) (UniProt Q16595); test: Simoa sandwich 2-step (35 min-5 min); capture Ab-1; with helper beads; frataxin 167 pg/mL
[24] = target: Recombinant, his tagged full length human frataxin protein (Abcam ab95502) (human) (UniProt Q16595); test: Simoa sandwich 3-step; capture Ab-5; frataxin 1000 pg/mL
[25] = target: Recombinant, his tagged full length human frataxin protein (Abcam ab95502) (human) (UniProt Q16595); test: Simoa sandwich 2-step (35 min-5 min); capture Ab-1; with helper beads; frataxin 500 pg/mL

Chain of UniProt Q16595 (Q16595 42-210): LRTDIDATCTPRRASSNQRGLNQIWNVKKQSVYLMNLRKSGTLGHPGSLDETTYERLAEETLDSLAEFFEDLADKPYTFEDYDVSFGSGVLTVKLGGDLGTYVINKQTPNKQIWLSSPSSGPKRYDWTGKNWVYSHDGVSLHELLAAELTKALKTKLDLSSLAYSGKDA

Which results are given for “Ab-3, mouse monoclonal [18A5DB1] to Frataxin (Abcam ab110328) (antibody)”?
Ave AEB [1]: 19.6 AEB; S/B [1]: 333; Ave AEB [2]: 8.95 AEB; S/B [2]: 815; Ave AEB [3]: 2.5 AEB; S/B [3]: 42.3; Ave AEB [4]: 0.0444 AEB; S/B [4]: 2.44; Ave AEB [5]: 0.737 AEB; S/B [5]: 7.72; LOD [6]: 0.28 pg/mL; LOD [7]: 0.132 pg/mL; Ave AEB [8]: 8.49 AEB; S/B [8]: 69.3; AEB Rep1 [9]: 0.0328 AEB; AEB Rep2 [9]: 0.028 AEB; Ave AEB [9]: 0.0304 AEB; S/B [9]: 1.34; LOD [10]: 0.268 pg/mL; AEB Rep1 [11]: 0.0586 AEB; AEB Rep2 [11]: 0.0638 AEB; Ave AEB [11]: 0.0612 AEB; S/B [11]: 2.51; Ave AEB [12]: 2.03 AEB; S/B [12]: 45.8; Ave AEB [13]: 7.11 AEB; S/B [13]: 88.8; Ave AEB [14]: 37.3 AEB; S/B [14]: 462; AEB Rep1 [15]: 0.118 AEB; AEB Rep2 [15]: 0.141 AEB; Ave AEB [15]: 0.13 AEB; S/B [15]: 5.74; Ave AEB [16]: 0.2 AEB; S/B [16]: 11; Ave AEB [17]: 0.0631 AEB; S/B [17]: 5.87; Ave AEB [18]: 2.44 AEB; S/B [18]: 38.9; Ave AEB [19]: 0.0296 AEB; S/B [19]: 1.63; AEB rep1 [20]: 0.357 AEB; AEB rep2 [20]: 0.356 AEB; AEB rep3 [20]: 0.336 AEB; Ave AEB [20]: 0.35 AEB; S/B [20]: 42.4; LOD [21]: 1.14 pg/mL; Ave AEB [22]: 4.24 AEB; S/B [22]: 235; AEB Rep1 [23]: 9.19 AEB; AEB Rep2 [23]: 9.19 AEB; Ave AEB [23]: 9.19 AEB; S/B [23]: 377; Ave AEB [24]: 22.9 AEB; S/B [24]: 120; AEB Rep1 [25]: 22.8 AEB; AEB Rep2 [25]: 22.7 AEB; Ave AEB [25]: 22.8 AEB; S/B [25]: 935

Source: patent US20220308072A1
